Test results as given in the FLAb antibody collection.
Where “and” joins values, the source holds several entries; their conditions need not be identical. Equal entries are not always repeated.

Assay: patients with anti-drug antibodies; higher = more immunogenic

Row | Protein | patients with anti-drug antibodies
1 | unnamed (protein) chain 1: EVQLVESGGGLVQPGGSLRLSCAASGFTFSSYVMSWVRQAPGKGLEWVATISSGGSYTYYPDSVKGRFTISRDNAKNTLYLQMNSLRAEDTAVYYCARRGDSMITTDYWGQGTLVTVSS chain 2: DIQMTQSPSSLSASVGDRVTITCKASQDVGTAVAWYQQKPGKAPKLLIYWASTRHTGVPSRFSGSGSGTDFTLTISSLQPEDFATYYCQQYSSYRTFGQGTKVEIK | 0%
2 | unnamed (protein) chain 1: EVQLVESGGGLVQPGGSLRLSCAASGFTFSRYSMSWVRQAPGKGLELVAQINSVGNSTYYPDTVKGRFTISRDNAKNTLYLQMNSLRAEDTAVYYCASGDYWGQGTLVTVSS chain 2: DVVMTQSPLSLPVTLGQPASISCRSSQSLIYSDGNAYLHWFLQKPGQSPRLLIYKVSNRFSGVPDRFSGSGSGTDFTLKISRVEAEDVGVYYCSQSTHVPWTFGQGTKVEIK | 3.5%
3 | unnamed (protein) chain 1: QVQLVESGGGLVQPGGSLRLSCAASGFTFRSHWLSWVRQAPGKGLEWVSNINYDGSSTYYADSVKGRFTISRDNSKNTLYLQMNSLRAEDTAVYYCARDTYLHFDYWGQGTLVTVSS chain 2: DIALTQPASVSGSPGQSITISCTGTSSDVGDINDVSWYQQHPGKAPKLMIYDVNNRPSGVSNRFSGSKSGNTASLTISGLQAEDEADYYCQSYAGSYLSEVFGGGTKLTVL | 0%
4 | unnamed (protein) chain 1: QVQLQQWGAGLLKPSETLSLTCAVYGGSFSGYYWSWIRQPPGKGLEWIGEINHSGSTNYNPSLKSRVTISVDTSKNQFSLKLSSVTAADTAVYYCARGYYDILTGYYYYFDYWGQGTLVTVSS chain 2: EIVLTQSPATLSLSPGERATLSCRASQSVSRYLAWYQQKPGQAPRLLIYDASNRATGIPARFSGSGSGTDSTLTISSLEPEDFAVYYCQQRSNWPRTFGQGTKVEIK | 4.4%
5 | unnamed (protein) chain 1: QVQLVQSGAEVKKPGSSVKVSCKASGYTFTDYEMHWVRQAPGQGLEWIGAVAPETGGTAYNQKFKGRATITADKSTSTAYMELSSLRSEDTAVYYCTSTVVPFAYWGQGTLVTVSS chain 2: QIQLTQSPSSLSASVGDRVTITCSASSSVSYMYWYQQKPGKAPKAWIYRTSNLASGVPSRFSGSGSGTDYTLTISSLQPEDFATYYCQQYQSLPLTFGGGTKVEIK | 0%
6 | unnamed (protein) chain 1: QVQLQQSGAELVKPGASVKLSCKASGYTFRSYDINWVRQRPEQGLEWIGWIFPGDGSTKYNEKFKGKATLTTDKSSSTAYMQLSRLTSEDSAVYFCARWTVVGPGYFDVWGAGTTVTVSS chain 2: QIVLTQSPAIMSASPGEKVTITCSASSSVSYMNWFQQKPGTSPKLWIYSTSNLASGVPARFSGSGSGTSYSLTISRMEAEDAATYYCQQRSSYPNTFGGGTKLEIK | 28%
7 | unnamed (protein) chain 1: EVQLVESGGGLVQPGGSLRLSCAASGFTFSPFAMSWVRQAPGKGLEWVAKISPGGSWTYYSDTVTGRFTISRDNAKNSLYLQMNSLRAEDTAVYYCARQLWGYYALDIWGQGTTVTVSS chain 2: EIVLTQSPATLSLSPGERATLSCSASISVSYMYWYQQKPGQAPRLLIYDMSNLASGIPARFSGSGSGTDFTLTISSLEPEDFAVYYCMQWSGYPYTFGGGTKVEIK | 2.9%
8 | unnamed (protein) chain 1: EVQLVESGGGLVQPGRSLRLSCAASRFTFDDYAMHWVRQAPGKGLEWVSGISWNSGRIGYADSVKGRFTISRDNAENSLFLQMNGLRAEDTALYYCAKGRDSFDIWGQGTMVTVSS chain 2: DIQMTQSPSSVSASVGDRVTITCRASQGISSWLAWYQQKPGKAPKLLIYGASSLESGVPSRFSGSGSGTDFTLTISSLQPEDFASYYCQQANSFPYTFGQGTKLEIK | 3.8%
9 | unnamed (protein) chain 1: EVQLVESGGGLVKPGGSLRLSCAASGFTFSNYAMSWVRQAPGKGLEWVATISSGGSHTYYLDSVKGRFTISRDNSKNTLYLQMNSLRAEDTALYYCARLFTGYAMDYWGQGTLVTVSS chain 2: QIVLTQSPATLSLSPGERATMSCTASSSVSSSYLHWYQQKPGKAPKLWIYSTSNLASGVPSRFSGSGSGTDYTLTISSLQPEDFATYYCHQYYRLPPITFGQGTKLEIK | 8%
10 | unnamed (protein) chain 1: QVQLQQSDAELVKPGASVKISCKASGYTFTDHAIHWAKQKPEQGLEWIGYISPGNDDIKYNEKFKGKATLTADKSSSTAYMQLNSLTSEDSAVYFCKRSYYGHWGQGTTLTVSS chain 2: DIQMTQSPASLSVSVGETVTITCRASENIYSNLAWYQQKQGKSPQLLVYAATNLADGVPSRFSGSGSGTQYSLKINSLQSEDFGSYYCQHFWGTPYTFGGGTRLEIK | 55%
11 | unnamed (protein) chain 1: EVQLQQSGPELEKPGASVKLSCKASGYSFTGYNMNWVKQSHGKSLEWIGHIDPYYGDTSYNQKFRGKATLTVDKSSSTAYMQLKSLTSEDSAVYYCVKGGYYGHWYFDVWGAGTTVTVSS chain 2: DIQMTQSPSSLSASLGERVSLTCRASQDIGSSLNWLQQGPDGTIKRLIYATSSLDSGVPKRFSGSRSGSDYSLTISSLESEDFVDYYCLQYVSSPPTFGAGTKLELK | 58%
12 | unnamed (protein) chain 1: QVQLVQSGAEVKKPGASVKVSCKASGYIFITYWMTWVRQAPGQGLEWMGQIFPASGSADYNEKFEGRVTMTTDTSTSTAYMELRSLRSDDTAVYYCARGGGGFAYWGQGTLVTVSS chain 2: DIQMTQSPSSLSASVGDRVTITCRTSENIYSYLAWYQQKPGKAPKLLIYNAKTLAEGVPSRFSGSGSGTDFTLTISSLQPEDFATYYCQHHYGIPFTFGQGTKVEIK | 6.5%
13 | unnamed (protein) chain 1: EVQLVESGGKLLKPGGSLKLSCAASGFTFSSFAMSWFRQSPEKRLEWVAEISSGGSYTYYPDTVTGRFTISRDNAKNTLYLEMSSLRSEDTAMYYCARGLWGYYALDYWGQGTSVTVSS chain 2: QIVLIQSPAIMSASPGEKVTMTCSASSSVSYMYWYQQKPGSSPRLLIYDTSNLASGVPVRFSGSGSGTSYSLTISRMEAEDAATYYCQQWSGYPYTFGGGTKLEIK | 0.2%
14 | unnamed (protein) chain 1: EVQLVQSGAEVKKPGESLKISCKGSGYSFTDYYMKWARQMPGKGLEWMGDIIPSNGATFYNQKFKGQVTISADKSISTTYLQWSSLKASDTAMYYCARSHLLRASWFAYWGQGTMVTVSS chain 2: DIVMTQSPDSLAVSLGERATINCESSQSLLNSGNQKNYLTWYQQKPGQPPKPLIYWASTRESGVPDRFSGSGSGTDFTLTISSLQAEDVAVYYCQNDYSYPYTFGQGTKLEIK | 17.5%
15 | unnamed (protein) chain 1: QVQLVQSGAEVKKPGASVKVSCKASGYTFTNYGMNWVRQAPGQGLEWMGWINTYTGEPTYADDFKGRVTMTTDTSTSTAYMELRSLRSDDTAVYYCARIGDSSPSDYWGQGTLVTVSS chain 2: EIVMTQSPATLSVSPGERATLSCKASQSVSNDVVWYQQKPGQAPRLLIYYASNRYTGIPARFSGSGSGTEFTLTISSLQSEDFAVYYCQQDYTSPWTFGQGTKLEIK | 0%
16 | unnamed (protein) chain 1: EVQLVESGGGLVQPGGSLRLSCAASGFTFSSHDMHWVRQATGKGLEWVSGIGTAGDTYYPDSVKGRFTISRENAKNSLYLQMNSLRAGDTAVYYCARDRYSPTGHYYGMDVWGQGTTVTVSS chain 2: DIQMTQSPSTLSASVGDRVTITCRASQSISSWLAWYQQKPGKAPKLLIYKASSLESGVPSRFSGSGSGTEFTLTISSLQPDDFATYYCKQYADYWTFGQGTKVEIK | 3%
17 | unnamed (protein) chain 1: QMQLVESGGGVVQPGRSLRLSCAASGFTFRTYGMHWVRQAPGKGLEWVAVIWYDGSNKHYADSVKGRFTITRDNSKNTLNLQMNSLRAEDTAVYYCARAPQWELVHEAFDIWGQGTMVTVSS chain 2: SYVLTQPPSVSVAPGQTARITCGGNNLGSKSVHWYQQKPGQAPVLVVYDDSDRPSWIPERFSGSNSGNTATLTISRGEAGDEADYYCQVWDSSSDHVVFGGGTKLTVL | 2.1%
18 | unnamed (protein) chain 1: EVQLVESGGDLVQPGRSLRLSCVASGFTFDDYAMHWVRQAPGKGLEWVSGVSWSGSTVGYADSVKGRFTVSRDNAQKSLYLQMNSLRAEDTALYYCVKDAYKFNYYYYGLDVWGQGTTVTVSS chain 2: EIVMTQSPATLSVSPGERATLSCRASQTILSNLAWYLQKPGQAPRLLIYGASTRATGLPARFSGSGSGTEFTLTISSLQSEDFAVYYCQQYNNWPLTFGGGTKVEIK | 5%
19 | unnamed (protein) chain 1: QVQLVESGGGVVQPGRSLRLSCAASGFTFSSYGMHWVRQAPGKGLEWVAVIWYDGSNKYYADSVKGRFTISRDNSKNTLYLQMNSLRAEDTAVYYCARDPRGATLYYYYYGMDVWGQGTTVTVSS chain 2: DIQMTQSPSSLSASVGDRVTITCRASQSINSYLDWYQQKPGKAPKLLIYAASSLQSGVPSRFSGSGSGTDFTLTISSLQPEDFATYYCQQYYSTPFTFGPGTKVEIK | 2% and 0%
20 | unnamed (protein) chain 1: EVQLVESGGGLVQPGGSLRLSCAASGFTFSSSGMSWVRQAPGKGLEWVSVIASSGSNTYYADSVKGRFTISRDNSKNTLYLQMNSLRAEDTAVYYCARSIFYTTWGQGTLVTVSS chain 2: not shown | 26%
